Measurements taken from patent publication US7927850B2, “Composition containing trehalose synthase and methods of use thereof” (Academia Sinica, priority 2006, dated 2011).

Tests used:
[1] = Enzyme assay: amount of trehalose produced from maltose by PTTS; type: biochemical, Picrophilus torridus
Description: (§1) The activity of PTTS was assayed by measuring the amount of trehalose produced from maltose. The standard reaction was performed by adding 1.5 μL purified enzyme into 50 μL reaction solution containing 50 mM sodium phosphate (pH 6.0) and 150 mM maltose and incubating in a 45° C. water bath for 25 min. The assay time was under the linear range of enzyme reaction. The reaction was terminated by heating the mixture in boiling water for 15 min. One unit of enzyme activity was defined as the amount of enzyme that catalyzes the formation of 1 μmol of trehalose per min. Kinetic analysis was performed under conditions of pH 6.0 and 45° C. for 5 min in 50 mM sodium phosphate buffer containing substrate (maltose, trehalose, or maltose plus a constant 10 mM of glucose) at various concentrations. The resulting data were analyzed offline with Origin 6.0 software (Microcal, Northampton, Mass.). All experiments were carried out in duplicate or triplicate.
(§2) The amount of trehalose, glucose, and maltose after each enzymatic reaction was measured using a high performance liquid chromatography (HPLC) (SFD 2100) system equipped with an RI detector (Schambeck S F D, RI 2000) at a flow rate of 0.9 mL/min. A carbohydrate analysis column (HYPERSIL-100 Amino, Thermo Hypersil-Keystone) equilibrated with 75% acetonitrile, 24% Milli-Q water, and 1% formic acid was used. The retention times of glucose, maltose, and trehalose were 8.0, 11.2, and 12.5 min, respectively.

[2] = type: biochemical, Picrophilus torridus
Description: FIG. 2 is a graph which illustrates the effects of pH on the activity and stability of Picrophilus torridus trehalose synthase. The enzyme activities at various pH levels were examined at the maltose concentration of 150 mM and temperature of 45° C. for 25 min. The pH stability of Picrophilus torridus trehalose synthase enzyme was examined by measuring the residual activity of enzyme at pH 6.0 after pre-incubation in various pH levels at 45° C. for 20 min. The solid square (▪) and circle (●) notations indicate the enzyme activity under 50 mM sodium phosphate buffer (pH 6.0˜8.5) and 50 mM acetate buffer (pH 3.5˜6.0), respectively. The open square (□) and circle (◯) notations represent the pH stability under 50 mM sodium phosphate buffer (pH 6.0˜8.5) and 50 mM acetate buffer (pH 3.5˜6.0), respectively.
FIG. 3 is a graph which illustrates the effects of temperature on the activity and stability of Picrophilus torridus trehalose synthase. The enzyme activities at various temperatures were examined at the maltose concentration of 150 mM and pH 6.0 for 25 min. To examine temperature stability, the residual activity of the enzyme was measured at 45° C. after pre-incubation of the purified enzyme at different temperatures (4° C.˜100° C.) and pH 6.0 for 20 min. The solid circle (●) and open circle (◯) notations denote the enzyme activity and temperature stability, respectively, under various temperatures.
as §1
Effects of pH and Temperature on the Activity and Stability of Recombinant PTTS. The pH dependence of PTTS was studied at 45° C. in 50 mM acetate buffer (pH 3.5-6.0) or 50 mM phosphate buffer (pH 6.0-8.5) using 150 mM maltose as a substrate. […] The effects of temperature on PTTS activity and stability are depicted in FIG. 3. The optimum temperature was 45° C. and the enzyme maintained stability up to 60° C. at pH 6.0 for 20 min.

[3] = Kinetic analysis of PTTS with maltose or trehalose as substrate; type: biochemical, Picrophilus torridus; settings: pH 6.0, 45° C., 5 min
Description: as §1
Kinetics Analysis. Kinetic parameters of PTTS were investigated at pH 6.0 and 45° C. for 5 min using maltose or trehalose as substrate (FIG. 7). […] This kinetic data is useful for determining the baseline activity of the enzyme and enables one of skill in the art to use this activity as a criterion for the isolation or construction of variants having substantially equivalent enzymatic activity.

[4] = Effects of substrate concentration and temperature on the maximum yield of trehalose; type: biochemical, Picrophilus torridus
Description: FIG. 4 is a graph which illustrates the effects of substrate concentration on the maximum yield of trehalose by Picrophilus torridus trehalose synthase. Purified enzyme was incubated with different concentrations of maltose in 50 mM sodium phosphate buffer (pH 6.0) at 45° C. Samples were collected at various intervals of reaction time and analyzed by HPLC. The symbols which indicated different concentrations of maltose are open square (□) 1 M; solid square (▪), 500 mM; solid triangle (▴), 250 mM; open rhombus (⋄), 150 mM, and open circle (◯), 50 mM.
FIG. 5 is a series of graphs illustrating the effects of temperature on the formation of trehalose (5A) and glucose (5B) from maltose (5C) by Picrophilus torridus trehalose synthase. Reaction mixtures containing purified Picrophilus torridus trehalose synthase, 150 mM maltose and pH 6.0 sodium phosphate buffer were incubated at various temperatures for 72 h. Samples were collected at various intervals and analyzed by HPLC. The symbols which indicated different reaction temperatures are open square (□) denoting temperature of 20° C.; solid square (▪) denoting temperature of 30° C.; solid triangle (▴) denoting temperature of 45° C.; and open triangle (Δ) denoting temperature of 0° C.
as §2
Effects of Substrate Concentration and Temperature on the Maximum Yield of Trehalose. The effects of the substrate concentration on the yield of trehalose by PTTS were examined at pH 6.0, 45° C., and various maltose concentrations. A maximum conversion was reached after 24 hour incubation for each reaction. The final yield of trehalose increased as the substrate concentration increased. […] Therefore, a higher maximum yield was gained at a lower temperature.

[5] = as above; type: biochemical, Picrophilus torridus; settings: 150 mM maltose, pH 6.0, 60° C., three days
[6] = 150 mM maltose, pH 6.0, 20° C., three days
[7] = 150 mM maltose, pH 6.0, 30° C., three days
[8] = 150 mM maltose, pH 6.0, 45° C., three days
[9] = 150 mM maltose, pH 6.0, 60° C., three days

B1: PTTS: recombinant Picrophilus torridus trehalose synthase with C-terminal linker and His(6)-tag (SEQ ID NO: 4), expressed in E. coli (protein, listed as Picrophilus torridus)
chain: MLDNNGLWYRDAVFYEVPVKSFYDSNNDGIGDFNGLTMKLDYLKKLGVDALWLLPFYKSPLKDDGYDISDYYSILPEYGTIDDFKNFIDTAHSMNIRVIADLVLNHVSDQHPWFIESRSSIDNPKRDWFIWSDTPEKFKEARIIFIDTEKSNWTYDPETKQYYFHRFYSSQPDLNYDNPDVRNEVKKVIRYWLDLGLDGFRADAVPYLFKRENTNCENLPETHNFFKEIRKMMDEDYPGTILLAEANQWPTETKAYFGNGDEFHMAFNFPLMPRIFIALARSDYYPIMDIIKQTLPIPDNCDWCIFLRNHDELTLEMVTDSERDIMYREYAKIPKMRLNLGIRRRLAPLADNDINTIELLNALIFSLPGTPIIYYGDEIGMGDNIYLGDRNGVRTPMQWSYDRNAGFSMADSEQLYSPVITNPNYHYESVNVEAELRLSSSLLNWMIKIIHVRKDYKELLGRGSIKFIEQGNKRVLSYIREYENQRMLCLFNLSRNPTYVELNLSDYIGLKPIEAITKAAFPRIKDDRYFITMTPRSFFWFNLIVPERDDSYDLIGEDANSRVDKLAAALEHHHHHH
specific activity ([1]; purified recombinant His-tag PTTS after Ni-column, 1 unit = 1 μmol trehalose per min): 80 units per mg of protein | specific activity toward maltose ([1]; recombinant PTTS, estimated): about 80 units/mg protein | specific activity as share of that of T. aquaticus trehalose synthase ([1]; toward maltose): about 60% | specific activity relative to M. smegmatis trehalose synthase ([1]; toward maltose): about 2.8 fold | specific activity relative to P. stutzeri CJ38 trehalose synthase ([1]; toward maltose): roughly equal | specific activity relative to Pimelobacter trehalose synthase ([1]; toward maltose): about 4.7 fold | activity at pH 5.0 ([2]; 45° C., 150 mM maltose): maintained high activity | optimum pH ([2]; 45° C., 150 mM maltose, acetate or phosphate buffer): 6.0 | activity maintained at pH 5.0 ([2]; pH 5.0): 80% | optimum temperature ([2]; pH 6.0, 150 mM maltose): 45 °C | enzyme efficiency (kcat/KM) toward maltose relative to trehalose [3]: 2.5 fold | kcat for trehalose relative to maltose [3]: twofold higher | glucose content [4, 6]: 3.6% | maltose content [4, 6]: 25.4% | maximum conversion of maltose into trehalose [4, 6]: 71% | glucose content [4, 7]: 4.3% | maltose content [4, 7]: 27.6% | maximum conversion of maltose into trehalose [4, 7]: 68% | glucose content [4, 8]: 7.8% | maltose content [4, 8]: 31.2% | maximum conversion of maltose into trehalose [4, 8]: 61% | glucose content [4, 9]: 19.2% | maltose content [4, 9]: 31.3% | incubation time to reach maximum conversion ([4]; pH 6.0, 45° C., each maltose concentration): 24 h | maximum conversion of maltose into trehalose ([4]; pH 6.0, 45° C., various maltose concentrations (50 mM to 1 M)): around 60% | maximum conversion of maltose into trehalose [5]: 50%
